± gives the uncertainty stated by the source.

The series is described as follows: amyloid nucleation score (Sup35N fusion, yeast selection) (log enrichment); library NNK2; higher = more nucleation; inactive = no reads after selection. The procedure, abridged: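 Plasmid inserts were Illumina-sequenced at input and output from psi-negative yeast expressing Sup35N fused to peptides of 20 random codons. The yeast were induced with 100 μM copper sulfate for 24 hours and grown 7 days at 30°C on medium lacking adenine and uracil, and sequences with under 100 input reads were excluded. Nucleation score is the DiMSum log enrichment of output over input reads, centred on the mode score of non-aggregating sequences.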
On to FLMSVTYCKGFGRTEECACC, for which the amyloid nucleation score was -0.28 ± 0.33.
Under DALVFSPCRALWTLLSVCEG stands 0.896 ± 0.3; under FIMEAFFEPFNKGYRYRMMS, 0.833 ± 0.18.
Under LMSSLFPLSSACY stands -0.545 ± 0.38; under FQLPFIVFRRMIVYLKWRWG, -1.05 ± 0.78; under LILWRA, 0.456 ± 0.39.
Under YGRVITGCLCQCIGDDGCGD stands 6.595 ± 0.039; under TKEHYYR, 0.048 ± 0.5.
Substance AFRPVSSIGLCRWYMKRWNS showed an amyloid nucleation score of 0.542 ± 0.19.
Under NLNVIPDCLWFYDSRMLFFI stands “inactive”; under GKFYQMENSV, -1.27 ± 0.78.
Under LVKVTLRVMISV stands 0.099 ± 0.2.
Consider SCVYLDCLF, for which the amyloid nucleation score came out at 0.25 ± 0.6.
Under HGAVGCAS stands -0.002 ± 1; under TKICWGSCRHLDLAFFLFLY, “inactive”.
Consider RNCRDNYYSWRFKHLNRDRD, for which the amyloid nucleation score is -0.076 ± 0.61.
Under CLTSFEES stands -0.155 ± 0.65.
Under SKPGNIKWYSGFSKRQREAA stands “inactive”; under PSVRTYTV, 4.67 ± 0.054.
Under SGPLVWLLLWQFNDGLCGWG stands -0.656 ± 0.49; under RCVWYSGSRLWTYWQVWLMG, 0.458 ± 0.8; under FLFMAIYSILLASIYVAFLS, 2.02 ± 0.2.
As for CIPRRGY, the amyloid nucleation score amounted to 0.713 ± 0.74.
Under YLSVYCFMPVWDKWYRS stands -1.57 ± 0.38.
Under RSSRYLLPFNGGTPFYDSR stands -0.284 ± 1.1; under YSDSSSREMEQSGL, -0.199 ± 0.63.
With AACYCCISRMVLYFSFHGSC, the amyloid nucleation score result was “inactive”.
Under VCVFEARVFSKLFVY stands “inactive”; under EWVAVGTDQR, 1.25 ± 0.29.
Under WDSFLRLDFSMLSVLRREPR stands 2.98 ± 0.18.
LTSWDHN gave an amyloid nucleation score of 0.131 ± 0.31.
Under QKHAYAWLTPF stands 1.54 ± 0.21; under CIRFVVMNIYGAASDKSMVG, 7.422 ± 0.036.
SQITYVFYFRRGFIMLMWWE had an amyloid nucleation score of -0.323 ± 0.79.
Under WLNLGMNLLLE stands 3.77 ± 0.093; under YSVQRCGYQDSKNNDVFLA, -0.043 ± 0.5; under RRVVVTWMSNIPRLLSRGVN, 0.171 ± 0.23.
Under LVACMASDITNNMSRLYHLI stands -1.79 ± 1.1.
Under EMCCTENCLEGSKVLAQFYC stands -1.02 ± 0.61; under SSCISHGGRK, -0.546 ± 0.45.
TSVQFCLLICLFRSTGNCAR gave an amyloid nucleation score of 2.1 ± 0.1.
Under YLVRMRYGAM stands 0.763 ± 0.43; under CSITRLGSVHYLSRYIFV, 3.74 ± 0.083; under LIYVDFHGIQVVCLYLCVHC, “inactive”.
Under DRLVSLAYLMWFGKMGWDKG stands 0.05 ± 0.51; under FVTFFLSSHWVIVLDAYSLN, -0.61 ± 1.1; under IFVFSWRIRMWLLKSLTCG, -0.904 ± 0.78.
Under GVTPG stands 0.752 ± 0.16.
FLNWCISKLR returned an amyloid nucleation score of -0.735 ± 1.
TGGRF showed an amyloid nucleation score of 0.264 ± 0.8.
Under ICGPLTRRVIDCGAYTKY stands -0.19 ± 0.26; under ISTSPMLACVASVRRSLIRT, 0.098 ± 0.74.
Under TCLYP stands -0.707 ± 0.55.
FIVYKVPFRV came in with an amyloid nucleation score of -0.934 ± 0.78.
Under GNCLEYIVRNTIANKRSRML stands -0.114 ± 1; under IRWFTEKISDKHLTGCRGLT, 0.345 ± 0.45.
Under RVLFHSSFGRGLVCEISVHV stands -1.01 ± 0.62.
As for SSYLPLQSTAIGHHSSRYGL, the amyloid nucleation score worked out at 1.08 ± 0.34.
Under VYAFLYFWGFRHGVVYV stands -0.099 ± 0.44.
Under LPQVPRVFRS stands -0.06 ± 1.1; under YVDAEARLFCGLLGLVFGDL, 5.47 ± 0.097; under GDGLEMCWVA, -0.226 ± 0.37.
Under ILYSSVVSLSCTLAKGNDYT stands 1.77 ± 0.4.
NQNIVVAVEVQVWFICNFVH: the amyloid nucleation score worked out at 3.08 ± 0.1.
Under NIRTKILLGY stands 0.006 ± 0.44; under DENFHAEGWRCFVYPFY, -0.373 ± 0.27.
EVGKNRTSHIL returned an amyloid nucleation score of -0.134 ± 0.55.
Substance KWVRLNKFNLPPHYSPPQTM yielded an amyloid nucleation score of 1.42 ± 0.24.
Under NRELV stands -1.67 ± 0.64.
Under IGAQPRDGYN stands -0.223 ± 0.49; under AFTWLY, 0.942 ± 0.26.
Under TMLYKWKVGNTFSHVLCLLL stands -0.14 ± 1; under VCSKHD, -0.78 ± 1.1; under ILINCSRWEGRTSCVTLAQQ, 2.27 ± 0.12.
In the case of FYKWGVVIFDGNCIEKWDIL, the amyloid nucleation score is -1.52 ± 0.75.
As for GNRIPVTRGLVKDRSKLVGV, the amyloid nucleation score was found to be 0.007 ± 1.1.
In turn, PNFRVVFCLRSV came in with an amyloid nucleation score of 9.978 ± 0.024.
Under GGGYLCRVDYGSIDLTWLKS stands -0.559 ± 0.76; under TIGPKFLLIIKMRCLWMNEE, 0.105 ± 1.1.
Under DGVSAFVCTFRDAVVRSAME stands 4.29 ± 0.045; under VFWSVYFDACLVFMTVSYLL, “inactive”; under YDLRVMWRNVSSDFLREKVC, -0.249 ± 1.
Under RCFIDLPCCQYLVQPRVGSG stands -0.26 ± 1; under SGYVRCLSAYDFLVNGLPML, 0.519 ± 0.31.
For SSRSDAIFIAICLNFIKGKM, the amyloid nucleation score is 1.32 ± 0.33.
Consider FLRLHE, for which the amyloid nucleation score entry is “inactive”.
Under YLGNLSPQRLRCFISLWIVQ stands -1.49 ± 1.1.
As to FYSAVYMLFIVMWFGY, the amyloid nucleation score entry is “inactive”.
Under WLWLND stands -0.661 ± 1.1; under RVSVDTWQAYMAICWSYVGL, 0.915 ± 0.23; under ANPFKSSDATVLVDVRGMGS, 3.09 ± 0.068.
Turning to APENGFRFWLVNHNAVHMIL, the amyloid nucleation score is -0.21 ± 0.79.
As for MIWTKRLDDHELCLGSRSML, the amyloid nucleation score was -0.739 ± 0.79.
Under YNVTTMYNYYLICISLATMY stands 7.09 ± 0.08; under CLCGTFVSVSPIGYRGQWGG, -0.467 ± 0.76; under TLDGLDS, -0.283 ± 0.25.
Under GPTSVRISPPGVCVLCPPSP stands 0.133 ± 0.31.
Under ITSSEVGHWYRVTEKCHIRM stands 1.2 ± 0.3; under ALHFPVIQHFW, 5.22 ± 0.073; under NTLNVWACVGLLLQ, 6.48 ± 0.075.
For KLVMFVGIFSNT, the amyloid nucleation score came out at 6.39 ± 0.085.
Under SDSDLPGFRREGNRIRVWLG stands 0.312 ± 0.49.
Under TIGRSFYELPFYGAILFWMR stands 1.45 ± 0.21; under YRASHCQSFQ, -1.2 ± 1.1; under IQHTVMWNALLLALAVSRLR, 0.667 ± 0.21.
Under TVSMLLGRRCVRFRVMVRVG stands 4.79 ± 0.05.
On to LGTIGYVDCFIDSITCYMVL, for which the amyloid nucleation score was 7.953 ± 0.028.
Under CFCLWGLDDLVLGLGSTMRF stands 3.16 ± 0.057; under FYGAKMSIHSYC, “inactive”; under RTVEWRDNYLLGRILLFNPV, -0.187 ± 0.55.
Under CGMCKF stands -0.487 ± 0.29.
Under LWGHLNHQWVCVSVMWVYLS stands 3.64 ± 0.081; under RDHYCFYRYRKGEFNNTRHP, -0.147 ± 0.39; under DLTHWSANSTCSSCVEFHLR, 3.99 ± 0.086.
As to HFKFYRNNYMTVIVHKACDV, the amyloid nucleation score stood at 8.665 ± 0.083.
Under RRGDKRMVTDFTLLTTGGGR stands 0.543 ± 0.33.
Under MFAGLIVLCLVWVYRRC stands 4.89 ± 0.061; under RCVKNKLWTYMGGNISYTSS, 2.14 ± 0.1; under WVDGVLGFKSTLARQSETGG, -0.121 ± 1.1.
Under GRLNPPLLLRIRSVSYAIPV stands 0.783 ± 0.58; under YVLKIGSY, -0.617 ± 0.44; under AGANLLSLCSFKHAECYFSN, 6.31 ± 0.071.
In turn, RNKIMCNPYCQGRICRILSG had an amyloid nucleation score of -0.777 ± 0.53.
Under LVIMGVCGWSGL stands 7.975 ± 0.038; under RLEVGGTN, 2.86 ± 0.11; under IVDTRGVPIWREISSIRVDL, -0.669 ± 0.74.
Substance LMATHQPGTFMAGCTTGSEH showed an amyloid nucleation score of 0.914 ± 0.18.
Under STRSGGLKQSVPLSRPP stands -0.325 ± 0.42; under VAVCMWTTNVCVI, 7.804 ± 0.042.
Under LIRVYDSDATTIDRLGVCRW stands 0.726 ± 0.35; under VYTSYGSRSFTFNRFNAWTD, -0.97 ± 0.78; under EYSFIHLEIKNTVLKRVLTP, 1.66 ± 0.32.
As to SWGNLWKSYCAK, the amyloid nucleation score was -0.55 ± 0.49.
LNNGCCMSLPVPTRPDDRDK registered an amyloid nucleation score of 0.356 ± 0.8.
Under NRWKHYTDGSTL stands -0.02 ± 0.39; under FMGGFG, 0.079 ± 0.63.
For IYHLPNR, the amyloid nucleation score is 5.988 ± 0.035.
WVVLLFKCFFEVLMLPLKVI yielded an amyloid nucleation score of -0.29 ± 0.38.
Under TCGLSIVDYWSLR stands -0.99 ± 1.1; under KGDGNRSDTDVFITHIFMYY, 6.336 ± 0.048; under QFRTICKLWA, -0.099 ± 0.42.
Under KDRDNVTGNSVVVRLRRRVL stands -0.296 ± 0.54.

Values taken from the supplement of paper PMC12042874.
